This series has as its target bovine articular cartilage aggrecan, P13608.

bovine articular cartilage aggrecan, P13608, sequence (P13608 17-2364): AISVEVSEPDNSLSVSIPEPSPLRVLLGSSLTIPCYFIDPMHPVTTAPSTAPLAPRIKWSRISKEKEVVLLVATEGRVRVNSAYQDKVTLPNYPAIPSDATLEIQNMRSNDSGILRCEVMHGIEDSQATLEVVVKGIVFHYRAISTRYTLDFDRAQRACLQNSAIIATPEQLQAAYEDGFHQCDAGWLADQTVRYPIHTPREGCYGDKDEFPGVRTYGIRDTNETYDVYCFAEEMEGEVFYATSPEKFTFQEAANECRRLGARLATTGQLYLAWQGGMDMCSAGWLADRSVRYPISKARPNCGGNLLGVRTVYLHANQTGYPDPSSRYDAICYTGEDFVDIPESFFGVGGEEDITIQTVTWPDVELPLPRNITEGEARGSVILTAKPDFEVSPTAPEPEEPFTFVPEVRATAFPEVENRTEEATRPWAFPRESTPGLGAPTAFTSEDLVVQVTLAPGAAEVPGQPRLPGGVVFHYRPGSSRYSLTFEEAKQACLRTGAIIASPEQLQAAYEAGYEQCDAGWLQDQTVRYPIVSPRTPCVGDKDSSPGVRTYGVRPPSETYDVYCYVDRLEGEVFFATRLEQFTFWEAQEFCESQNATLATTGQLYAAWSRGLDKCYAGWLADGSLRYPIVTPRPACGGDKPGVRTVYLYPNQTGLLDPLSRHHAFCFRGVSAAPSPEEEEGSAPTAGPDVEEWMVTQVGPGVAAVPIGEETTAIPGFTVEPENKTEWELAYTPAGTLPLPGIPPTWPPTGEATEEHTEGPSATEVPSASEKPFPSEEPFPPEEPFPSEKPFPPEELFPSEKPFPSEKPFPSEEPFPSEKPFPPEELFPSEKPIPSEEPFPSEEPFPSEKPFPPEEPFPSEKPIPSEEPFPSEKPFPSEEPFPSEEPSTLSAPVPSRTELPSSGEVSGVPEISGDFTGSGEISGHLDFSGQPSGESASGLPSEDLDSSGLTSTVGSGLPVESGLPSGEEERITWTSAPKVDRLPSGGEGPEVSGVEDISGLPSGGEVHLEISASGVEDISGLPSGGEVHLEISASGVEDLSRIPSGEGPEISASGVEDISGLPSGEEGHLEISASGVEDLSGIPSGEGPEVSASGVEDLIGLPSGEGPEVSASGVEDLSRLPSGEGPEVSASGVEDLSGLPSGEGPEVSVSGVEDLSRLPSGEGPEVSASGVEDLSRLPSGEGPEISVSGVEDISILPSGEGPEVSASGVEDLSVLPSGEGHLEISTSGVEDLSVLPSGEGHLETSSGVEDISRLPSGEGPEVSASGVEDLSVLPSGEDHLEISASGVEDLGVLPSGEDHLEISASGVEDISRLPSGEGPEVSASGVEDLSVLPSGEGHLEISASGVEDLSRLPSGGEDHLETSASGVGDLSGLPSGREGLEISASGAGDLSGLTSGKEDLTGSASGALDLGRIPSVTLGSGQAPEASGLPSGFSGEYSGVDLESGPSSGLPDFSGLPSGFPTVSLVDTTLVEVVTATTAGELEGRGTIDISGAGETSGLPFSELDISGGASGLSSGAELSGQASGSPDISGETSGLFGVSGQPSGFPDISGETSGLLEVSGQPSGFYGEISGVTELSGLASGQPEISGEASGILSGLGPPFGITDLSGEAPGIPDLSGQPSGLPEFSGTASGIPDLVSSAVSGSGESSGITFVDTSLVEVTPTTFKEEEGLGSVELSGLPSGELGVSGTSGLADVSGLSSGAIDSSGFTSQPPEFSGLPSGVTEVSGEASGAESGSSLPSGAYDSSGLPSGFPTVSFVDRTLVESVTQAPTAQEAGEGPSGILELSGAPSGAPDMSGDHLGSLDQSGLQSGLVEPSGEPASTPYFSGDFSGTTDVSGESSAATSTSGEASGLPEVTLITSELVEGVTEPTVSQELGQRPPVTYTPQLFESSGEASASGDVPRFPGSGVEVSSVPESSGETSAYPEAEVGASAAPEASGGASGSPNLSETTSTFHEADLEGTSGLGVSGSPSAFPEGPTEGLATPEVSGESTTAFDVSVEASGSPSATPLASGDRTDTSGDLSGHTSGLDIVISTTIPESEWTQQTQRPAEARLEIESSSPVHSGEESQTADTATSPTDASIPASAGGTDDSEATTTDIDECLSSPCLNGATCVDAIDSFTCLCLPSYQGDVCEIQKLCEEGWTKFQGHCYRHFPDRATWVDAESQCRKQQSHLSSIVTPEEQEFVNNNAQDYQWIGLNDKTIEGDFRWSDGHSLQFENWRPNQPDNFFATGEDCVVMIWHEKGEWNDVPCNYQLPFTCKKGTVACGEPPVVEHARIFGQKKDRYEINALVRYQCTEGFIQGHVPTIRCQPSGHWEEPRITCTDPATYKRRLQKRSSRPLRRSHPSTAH

B1: ADAMTS4(p40), auto-digested isoform of human ADAMTS4 (protein)
chain: FASLSRFVETLVVADDKMAAFHGAGLKRYLLTVMAAAAKAFKHPSIRNPVSLVVTRLVILGSGEEGPQVGPSAAQTLRSFCAWQRGLNTPEDSDPDHFDTAILFTRQDLCGVSTCDTLGMADVGTVCDPARSCAIVEDDGLQSAFTAAHELGHVFNMLHDNSKPCISLNGPLSTSRHVMAPVMAHVDPEEPWSPCSARFITDFLDNGYGHCLLDKPEAPLHLPVTFPGKDYDADRQCQLTFGPDSRHCPQLPPPCAALWCSGHLNGHAMCQTKHSPWADGTPCGPAQACMGGRCLHMDQLQDFNIPQAGGWGPWGPWGDCSRTCGGGVQFSSRDCTRPVPRNGGKYCEGRRTRFRSCNTEDCPTGSALT
Turning to B1, the “aggrecanase activity (Western blot with MAb BC-3 for the 374ARGXX neoepitope)” value was “both isoforms have aggrecanase activity”.

B2: furin-processed mature protein of construct C (protein)
chain: FASLSRFVETLVVADDKMAAFHGAGLKRYLLTVMAAAAKAFKHPSIRNPVSLVVTRLVILGSGEEGPQVGPSAAQTLRSFCAWQRGLNTPEDSDPDHFDTAILFTRQDLCGVSTCDTLGMADVGTVCDPARSCAIVEDDGLQSAFTAAHELGHVFNMLHDNSKPCISLNGPLSTSRHVMAPVMAHVDPEEPWSPCSARFITDFLDNGYGHCLLDKPEAPLHLPVTFPGKDYDADRQCQLTFGPDSRHCPQLPPPCAALWCSGHLNGHAMCQTKHSPWADGTPCGPAQACMGGRCLHMDQLQDFNIPQAGGWGPWGPWGDCSRTCGGGVQFSSRDCTRPVPRNGGKYCEGRRTRFRSCNTEDCPTGSALTFREEQCAAYNHRTDLFKSFPGPMDWVPRYTGVAPQDQCKLTCQARALGYYYVLEPRVVDGTPCSPDSSSVCVQGRCIHAGCDRIIGSKKKFDKCMVCGGDGSGCSGSAWSHPQFEK
In the case of B2, the aggrecanase activity result was “The furin-processed mature proteins of construct C and D (SEQ ID NOS:47 and 48, respectively) have aggrecanase activity”.

B3: furin-processed protein of construct B (truncated ADAMTS4, catalytic domain with His tag) (protein)
chain: FASLSRFVETLVVADDKMAAFHGAGLKRYLLTVMAAAAKAFKHPSIRNPVSLVVTRLVILGSGEEGPQVGPSAAQTLRSFCAWQRGLNTPEDSDPDHFDTAILFTRQDLCGVSTCDTLGMADVGTVCDPARSCAIVEDDGLQSAFTAAHELGHVFNMLHDNSKPCISLNGPLSTSRHVMAPVMAHVDPEEPWSPCSARFITDFLDNGYGHCLLDKPEHHHHHH
For the protein B3, the “enzymatic (aggrecanase) activity” value is “The furin-processed protein from this construct is enzymatically inactive (SEQ ID NO:46)”.

B4: furin-processed construct H (truncated ADAMTS4 active-site mutant without the spacer domain, C-terminal FLAG tag) (protein)
chain: FASLSRFVETLVVADDKMAAFHGAGLKRYLLTVMAAAAKAFKHPSIRNPVSLVVTRLVILGSGEEGPQVGPSAAQTLRSFCAWQRGLNTPEDSDPDHFDTAILFTRQDLCGVSTCDTLGMADVGTVCDPARSCAIVEDDGLQSAFTAAHQLGHVFNMLHDNSKPCISLNGPLSTSRHVMAPVMAHVDPEEPWSPCSARFITDFLDNGYGHCLLDKPEAPLHLPVTFPGKDYDADRQCQLTFGPDSRHCPQLPPPCAALWCSGHLNGHAMCQTKHSPWADGTPCGPAQACMGGRCLHMDQLQDFNIPQAGGWGPWGPWGDCSRTCGGGVQFSSRDCTRPVPRNGGKYCEGRRTRFRSCNTEDCPVDYKDDDDK
On to B4, for which the aggrecanase activity result is “Furin-processed construct H (SEQ ID NO:51) and construct I (SEQ ID NO:52) lack aggrecanase activity”.

B5: furin-processed mature protein of construct D (protein)
chain: FASLSRFVETLVVADDKMAAFHGAGLKRYLLTVMAAAAKAFKHPSIRNPVSLVVTRLVILGSGEEGPQVGPSAAQTLRSFCAWQRGLNTPEDSDPDHFDTAILFTRQDLCGVSTCDTLGMADVGTVCDPARSCAIVEDDGLQSAFTAAHELGHVFNMLHDNSKPCISLNGPLSTSRHVMAPVMAHVDPEEPWSPCSARFITDFLDNGYGHCLLDKPEAPLHLPVTFPGKDYDADRQCQLTFGPDSRHCPQLPPPCAALWCSGHLNGHAMCQTKHSPWADGTPCGPAQACMGGRCLHMDQLQDFNIPQAGGWGPWGPWGDCSRTCGGGVQFSSRDCTRPVPRNGGKYCEGRRTRFRSCNTEDCPTGSALTFREEQCAAYNHRTDLFKSFPGPMDWVPRYTGVAPQDQCKLTCQARALGYYYVLEPRVVDGTPCSPDSSSVCVQGRCIHAGCDRIIGSKKKFDKCMVCGGDGSGCS
B5: the aggrecanase activity entry was “The furin-processed mature proteins of construct C and D (SEQ ID NOS:47 and 48, respectively) have aggrecanase activity”.

B6: ADAMTS4(p53), auto-digested isoform of human ADAMTS4 (protein)
chain: FASLSRFVETLVVADDKMAAFHGAGLKRYLLTVMAAAAKAFKHPSIRNPVSLVVTRLVILGSGEEGPQVGPSAAQTLRSFCAWQRGLNTPEDSDPDHFDTAILFTRQDLCGVSTCDTLGMADVGTVCDPARSCAIVEDDGLQSAFTAAHELGHVFNMLHDNSKPCISLNGPLSTSRHVMAPVMAHVDPEEPWSPCSARFITDFLDNGYGHCLLDKPEAPLHLPVTFPGKDYDADRQCQLTFGPDSRHCPQLPPPCAALWCSGHLNGHAMCQTKHSPWADGTPCGPAQACMGGRCLHMDQLQDFNIPQAGGWGPWGPWGDCSRTCGGGVQFSSRDCTRPVPRNGGKYCEGRRTRFRSCNTEDCPTGSALTFREEQCAAYNHRTDLFKSFPGPMDWVPRYTGVAPQDQCKLTCQARALGYYYVLEPRVVDGTPCSPDSSSVCVQGRCIHAGCDRIIGSKKKFDKCMVCGGDGSGCSKQSGSFRK
Regarding B6, the “aggrecanase activity (Western blot with MAb BC-3 for the 374ARGXX neoepitope)” value is recorded as “both isoforms have aggrecanase activity”.

B7: mature protein of construct G (full-length ADAMTS4 active-site mutant E362Q with FLAG tag) (protein)
chain: FASLSRFVETLVVADDKMAAFHGAGLKRYLLTVMAAAAKAFKHPSIRNPVSLVVTRLVILGSGEEGPQVGPSAAQTLRSFCAWQRGLNTPEDSDPDHFDTAILFTRQDLCGVSTCDTLGMADVGTVCDPARSCAIVEDDGLQSAFTAAHQLGHVFNMLHDNSKPCISLNGPLSTSRHVMAPVMAHVDPEEPWSPCSARFITDFLDNGYGHCLLDKPEAPLHLPVTFPGKDYDADRQCQLTFGPDSRHCPQLPPPCAALWCSGHLNGHAMCQTKHSPWADGTPCGPAQACMGGRCLHMDQLQDFNIPQAGGWGPWGPWGDCSRTCGGGVQFSSRDCTRPVPRNGGKYCEGRRTRFRSCNTEDCPTGSALTFREEQCAAYNHRTDLFKSFPGPMDWVPRYTGVAPQDQCKLTCQARALGYYYVLEPRVVDGTPCSPDSSSVCVQGRCIHAGCDRIIGSKKKFDKCMVCGGDGSGCSKQSGSFRKFRYGYNNVVTIPAGATHILVRQQGNPGHRSIYLALKLPDGSYALNGEYTLMPSPTDVVLPGAVSLRYSGATAASETLSGHGPLAQPLTLQVLVAGNPQDTRLRYSFFVPRPTPSTPRPTPQDWLHRRAQILEILRRRPWAGRKVDYKDDDDK
Regarding B7, the aggrecanase activity entry was “The E362Q mutation abolished the aggrecanase activity of the mature protein (SEQ ID NO:50) of construct G”.

B8: furin-processed construct I (truncated ADAMTS4 active-site mutant without the spacer and the TSP-1 domain, C-terminal FLAG tag) (protein)
chain: FASLSRFVETLVVADDKMAAFHGAGLKRYLLTVMAAAAKAFKHPSIRNPVSLVVTRLVILGSGEEGPQVGPSAAQTLRSFCAWQRGLNTPEDSDPDHFDTAILFTRQDLCGVSTCDTLGMADVGTVCDPARSCAIVEDDGLQSAFTAAHQLGHVFNMLHDNSKPCISLNGPLSTSRHVMAPVMAHVDPEEPWSPCSARFITDFLDNGYGHCLLDKPEAPLHLPVTFPGKDYDADRQCQLTFGPDSRHCPQLPPPCAALWCSGHLNGHAMCQTKHSPWADGTPCGPAQACMGGRCLHMDQLQDFNIPQAVDYKDDDDK
For the protein B8, the aggrecanase activity result is “Furin-processed construct H (SEQ ID NO:51) and construct I (SEQ ID NO:52) lack aggrecanase activity”.

For the origin of these results see patent publication US7118902.
